# T1: GUCY2C ECD peptide 19 (68-NSGDCRSSTCEGLDLLRKIS-87) (human)
# T1 construct: human GUCY2C residues 68-87; numbers count on: the mature protein (91-110 of P25092); In the crystal the peptide holds the disulfide bond Cys72-Cys77; also called GUCY2C-peptide; 68GUCY2C-peptide87; source: synthetic peptide (New England Peptide arrays for the DELFIA; chemically synthesized for the crystal)
# T1 chain: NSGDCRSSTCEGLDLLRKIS
# B1: anti-GUCY2C single chain Fv (aGUCY2C-scFv) fragment of PF-07062119 (scFv, V domains shown)
# VH: EVQLVESGGGLVQPGGSLRLSCAASGFTFSSYWMHWVRQAPGKGLEWIGEIKPSNELTNVHEKFKDRFTISVDKAKNSAYLQMNSLRAEDTAVYYCTRTITTTEGYWFFDVWGQGTLVTVSS
# VL: DIQLTQSPSSLSASVGDRVTITCRASESVDYYGSSLLQWYQQKPGKAPKLLIYAASKLASGVPSRFSGSGSGTDFTLTISSLQPEDFATYYCQQTRKAYTFGQGTKLEIK
# notes: Fc removed with AcTEV protease; also called anti-GUCY2C-scFv; source: Expi293F, transfected (with kifunensine), purified (MAb Select Sure, Superdex 200 SEC, TEV cleavage); not shown: Fc, C-terminal, cleaved
# B2: GUCY2C-1608 (IgG version of PF-07062119) (antibody, V domains shown)
# VH: B1 VH
# VL: B1 VL
# notes: as the VH in aGUCY2C-scFv; as the VL in aGUCY2C-scFv; IgG detected with an anti-human IgG secondary antibody; also called GUGY2C-1608; Ab GUCY2C-1608
# Biological target: T1, GUCY2C ECD peptide 19 …
# Experiment: crystal structure; aGUCY2C-scFv with GUCY2C-peptide 68-87, complex formed at 1:1.2 molar ratio; 1.6 A; two complexes in the asymmetric unit
# Conditions: both partners purified
row,binding result,Molecule
1,binds,B1

# Biological target: T2, human GUCY2C ECD, purified (from HuGUCY2C_ECD_TEV_muIgG2amutFc_Flag) (human, UniProt P25092)
# T2 construct: human GUCY2C extracellular domain, residues 1-407; numbers count on: the mature protein (24-430 of P25092); For the crystal the complex with the scFv was treated with endoglycosidase H. The limits 1-407 are stated for the crystallised ECD; also called full GUCY2C ECD; full length GUCY2C-ECD; source: Expi293F, transfected (with kifunensine), purified (MAb Select Sure, Superdex 200 SEC, TEV …)
# T2 sequence (P25092 24-407): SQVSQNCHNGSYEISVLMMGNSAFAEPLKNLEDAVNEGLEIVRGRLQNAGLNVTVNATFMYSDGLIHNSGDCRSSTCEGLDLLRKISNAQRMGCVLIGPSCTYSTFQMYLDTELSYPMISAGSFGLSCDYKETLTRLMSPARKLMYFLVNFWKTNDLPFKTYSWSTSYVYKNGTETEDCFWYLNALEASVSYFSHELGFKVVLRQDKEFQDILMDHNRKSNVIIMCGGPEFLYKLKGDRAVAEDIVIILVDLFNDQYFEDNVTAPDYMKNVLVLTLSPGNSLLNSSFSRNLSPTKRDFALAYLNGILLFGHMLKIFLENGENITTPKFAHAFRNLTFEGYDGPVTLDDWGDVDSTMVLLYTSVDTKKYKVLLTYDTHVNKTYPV
# Experiment: crystal structure; aGUCY2C-scFv with GUCY2C-ECD (1-407), mixed at 1.2:1, treated with endoglycosidase H, purified by SEC; 3.52 A; one complex in the asymmetric unit
# Conditions: both partners purified
row,binding result,Molecule
1,binds,B1

# Biological target: T1, GUCY2C ECD peptide 19 …
# Experiment: ELISA; DELFIA competition ELISA; human GUCY2C ECD coated at 1 ug/ml; GUCY2C-1608 at EC80 mixed with peptide 19 serially diluted 1:3 from 10 ug/ml; anti-human IgG europium detection
# Conditions: both partners purified
row,binding result,Molecule
1,binds,B2

# Biological target: T2, human GUCY2C ECD, purified (from …)
# Experiment: as above
# Conditions: both partners purified
row,binding result,Molecule
1,binds,B2

# Biological target: PF-07062119, anti-GUCY2CxCD3 bispecific antibody
# Experiment: flow cytometry of yeast-displayed GUCY2C ECD
# Conditions: 2 independent experiments, triplicate samples; parent: est. 36; read off a plot
row,Molecule,response
1,human GUCY2C ECD displayed on yeast (CID1814) (from UniProt P25092) K85Q,50
2,human GUCY2C ECD displayed on yeast (CID1814) (from UniProt P25092) I66L,34
3,human GUCY2C ECD displayed on yeast (CID1814) (from UniProt P25092) L83I,28
4,human GUCY2C ECD displayed on yeast (CID1814) (from UniProt P25092) D81E,33
5,human GUCY2C ECD displayed on yeast (CID1814) (from UniProt P25092) S15N,21
6,human GUCY2C ECD displayed on yeast (CID1814) (from UniProt P25092) S62F,30
7,human GUCY2C ECD displayed on yeast (CID1814) (from UniProt P25092) R84K,48
8,human GUCY2C ECD displayed on yeast (CID1814) (from UniProt P25092) S74T,41
9,human GUCY2C ECD displayed on yeast (CID1814) (from UniProt P25092) S87F,32

# Same assay, conditions: 2 independent experiments, triplicate samples; parent: est. 130; read off a plot
row,response,Molecule
1,140,human GUCY2C ECD displayed on yeast (CID1814) (from UniProt P25092) human 172-178 substituted with chicken residues 170-176
2,97,human GUCY2C ECD displayed on yeast (CID1814) (from UniProt P25092) Y109V; T133N
3,43,human GUCY2C ECD displayed on yeast (CID1814) (from UniProt P25092) N21D; A23D; D71G
4,37,human GUCY2C ECD displayed on yeast (CID1814) (from UniProt P25092) human 153-166 substituted with chicken residues 151-164
5,220,human GUCY2C ECD displayed on yeast (CID1814) (from UniProt P25092) Q210R; E230A; D238T; E259R
6,150,human GUCY2C ECD displayed on yeast (CID1814) (from UniProt P25092) human 207-217 substituted with chicken residues 205-215
7,65,human GUCY2C ECD displayed on yeast (CID1814) (from UniProt P25092) human 363-376 substituted with chicken residues 361-374
8,96,human GUCY2C ECD displayed on yeast (CID1814) (from UniProt P25092) S163T; G403S
9,110,human GUCY2C ECD displayed on yeast (CID1814) (from UniProt P25092) human 238-243 substituted with chicken residues 236-241
10,80,human GUCY2C ECD displayed on yeast (CID1814) (from UniProt P25092) human 259-269 substituted with chicken residues 257-267
11,110,human GUCY2C ECD displayed on yeast (CID1814) (from UniProt P25092) A331E; L335I
12,160,human GUCY2C ECD displayed on yeast (CID1814) (from UniProt P25092) human 198-206 substituted with chicken residues 196-204

# Same assay, conditions: 2 independent experiments, triplicate samples; read off a plot
row,Molecule,response
1,chicken GUCY2C ECD displayed on yeast (CID1818) (from UniProt E1BZE2) chicken residues 71-89 replaced by human 74-92,14
2,chicken GUCY2C ECD displayed on yeast (CID1818) (from UniProt E1BZE2) chicken residues 70-84 replaced by human 73-87,11

# From PMC10435522, “Molecular insights into recognition of GUCY2C by T-cell engaging bispecific antibody anti-GUCY2CxCD3” (Scientific Reports, 2023)
